{
  "source": "patent US20050053973A1",
  "about": "(published 2005)",
  "binders": {"B1": {"name": "CD28-A10 (designed binder)", "chain": "CGPGRFQCESGQCVPATWVCDGDDDCADGSDEKSCATTAPTCESNQFQCGSGQCLPGTWRCDGVNDCADSSDETGCGRPGPGATSAPAACGPGRFQCNNGNCVPQTLGCDGDNDCGDSSDEANCSAPASEPPGSL"}, "B2": {"name": "recombinant human FcERI protein (receptor, UniProt P12319 26-205, looked up)", "chain": "VPQKPKVSLNPPWNRIFKGENVTLTCNGNNFFEVSSTKWFHNGSLSEETNSSLNIVNAKFEDSGEYKCQHQQVNESEPVYLEVFSDWLLLQASAEVVMEGQPLFLRCHGWRNWDVYKVIYYKDGEALKYWYENHNISITNATVEDSGTYYCTGKVWQLDYESEPLNITVIKAPREKYWLQ", "notes": "also called recombinant FcERI; recombinant soluble IgE receptor"}},
  "key": {"[1]": {"biological_target": "CD28 on monkey PBMC (monkey)", "assay": "cell-based or functional assay"}, "[2]": {"biological_target": "human IgE (human, UniProt P01854 1-428)", "sequence (P01854 other isoform, or with tags, fused parts or gaps)": "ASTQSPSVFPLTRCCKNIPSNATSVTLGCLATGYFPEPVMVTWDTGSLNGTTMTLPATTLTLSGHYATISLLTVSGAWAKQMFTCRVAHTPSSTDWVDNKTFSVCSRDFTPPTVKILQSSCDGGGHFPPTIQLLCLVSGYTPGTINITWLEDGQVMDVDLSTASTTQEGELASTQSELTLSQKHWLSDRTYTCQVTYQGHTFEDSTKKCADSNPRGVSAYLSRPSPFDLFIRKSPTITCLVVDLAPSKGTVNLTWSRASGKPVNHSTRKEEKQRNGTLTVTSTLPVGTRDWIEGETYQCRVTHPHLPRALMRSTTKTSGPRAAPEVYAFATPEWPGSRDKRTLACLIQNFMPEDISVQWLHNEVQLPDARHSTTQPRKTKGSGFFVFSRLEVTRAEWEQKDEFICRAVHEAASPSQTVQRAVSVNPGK", "assay": "Biacore, human IgE coupled to a CM5 chip by NHS/EDC, sample protein in flow", "description": "Human IgE was immobilized to a CM5 chip (BiaCore) using standard NHS/EDC methods. Sample proteins were dialyzed into HBS buffer overnight, and the dialysis buffer was used as a running buffer for the experiment. Sample proteins were run successively over IgE or ethanolamine coated flow cells, and the data analyzed using the BiaEvaluation software package."}, "[3]": {"biological_target": "T1, human serum albumin (human, UniProt P02768 25-609)", "T1 construct": "also called HSA; HAS", "assay": "ELISA, 0.5 µg HSA per well, expression lysate, anti-HA-HRP, signal equal to or better than the anti-HSA trimer", "procedure": "ELISA plate wells were coated with 0.2 μg of CD40L or 0.5 μg of HAS, and 5 μl of the monomer expression clone lysate was applied to each well. The bound monomers (which were produced as a hemagglutinin (HA) fusion) were then detected by anti-HA-HRP conjugated antibody, developed by horse-radish peroxidase enzyme activity, and read at an OD of 450 nm."}},
  "data": [
    {"binder": "B1", "values": [
      {"measurement": "IC50, PBMC assay on monkey cells", "setting": "[1]", "result": 7, "unit": "nM"}
    ]},
    {"binder": "B2", "values": [
      {"measurement": "Kd", "setting": "[2]", "result": 450, "unit": "nM"}
    ]},
    {"binder": "CNPTGKFKCRSGRCVPRESCRCDGVDDCEDNSDEKDCQPHTSLQ (designed binder, HA fusion, tested as expression lysate)", "note": "[A1_34]", "values": [
      {"measurement": "binding result", "setting": "[3]", "result": "binds"}
    ]}
  ]
}
